Assay results: PMC4132020

Molecular target: Sso7d-IN with an 11 glycine linker (Sulfolobus solfataricus chromosomal protein Sso7d fused to the N-terminus of HIV-1 integrase) (Sulfolobus solfataricus | HIV-1)
Assay: SEC; Superdex 200 PC 3.2/30, 20 mM HEPES pH 7.5, 20% glycerol, 5 mM DTT, 500 mM NaCl; free protein peak of a scaled-up intasome assembly mixture (with U5-25 DNA, CaCl2, 4 µM ZnCl2) after addition of 500 mM NaCl; position relative to protein standards

Sso7d-IN with an 11 glycine linker (Sulfolobus solfataricus chromosomal protein Sso7d fused to the N-terminus of HIV-1 integrase) (enzyme)
stoichiometry N: 4
